Assays:
[1] = target: OVCAR-3 cells (antigen not identified); assay: immunohistochemistry on OVCAR3 cells
[2] = target: OVCAR-3 cells (antigen not identified); assay: saturation binding to cells by FACS, double-reciprocal plot; 'Rel. Affinity (nM)'; antigen on the cells not identified
[3] = target: SK-BR-3 cells (antigen not identified); assay: as above

Binder | # Samples Staining Positive [1] | Kd [2] | Kd [3]
1038_D5 (TCN-445) (antibody, V domains shown) VH: QVQLVQSGAEVQKPGASMKVSCKASGYTFTDFYFHWVRQAPGQGLEWMGWINPRSGATNYAHKFRGRVTMTSDTSIKTIYMSLGWLRSGDTAVYYCARDMRRENGYNFDGTFDYWGQGTLVTVSS VL: DIQMTQSPPSLSASVGDRVTITCQASQDIKNYLNWYQQKPGKAPKLLIYDASNLETGVPSRFSGSRSGTNFTFTINSLQPEDIATYFCQRYDAFPLTFGGGSKVEIK | > 75% | 0.8 nM | –
1256_B2 (antibody, V domains shown) VH: QVQLQQWGAGLLKPSETLSLTCAVYGGSFSGYFWSWIRQPPGRGLEWIGEINHRGSSTYKSSLKTRLTMSVDTSKNQFSIKLTSVTAADTAVYYCARITEAVGVTSFDSWGQGVLVTVSS VL: QSVLTQPPSVSAAPGQKVTISCSGSTSNIGNNYVSWYQQLPQRAPRLLIYDNDKRPSGIPDRFSGSKSGASATLGITGLQTGDEAYYYCGTWDNNLSRVFGGGTKLTVL | – | – | 1.2 nM
1242_P11 (antibody, V domains shown) VH: QVQLTQWGAGLLKPSETLSLTCAVGGGSFSGYFWTWIRQSPGRGLEWIGEINHKGKTTYNPTLKSRLSILVDTFKNQFSLKLRSVVAADTAVYYCARIVEAVGVTSFDSWGQGILVTVSS VL: QSVLTQPPSVSAAPGQKVTISCSGSTSNIGNNHVSWYQQLPQTAPKLLIYDNNKRPSGIPDRFSGSKSGASATLGITGLQTGDEAYYYCGTWDTRLSRVFGGGTKLTVL | – | 2 nM | –

More lines, now with the values ahead:

# Samples Staining Positive [1] | Kd [2] | Kd [3] | Binder
– | – | 1.1 nM | 1250_I13 (antibody, V domains shown) VH: QVQLQQWGAGLLKPSETLSLTCAVYGGSFSGYFWTWVRQLPGRGLEWIGEINHRGTSSYNPSLRSRLTISVDTSKNQFSLKLSSVTAADTAVYYCARITEAVGFTSFDYWGQGILVTVSS VL: QSVLTQPPSMSAAPGQKVTISCSGSTSNIGSNYVSWYQQLPQRAPKLLIYDNDKRPSGIPDRFSGSKSGASATLDITGLQTGDEAYYYCGTWDSSLSRVFGGGTKLTVL
– | – | 1.1 nM | 1253_N12 (antibody, V domains shown) VH: QVQLQQWGAGLVKPSETLSVTCAVYGGSFSGYFWTWIRQPPGRGLEWIGEINHRGSSSYNPSLRSRLSISVDTSKNQFSLKMRSVTAADTAVYYCARITEAVGVTSFDSWGQGVLVTVSS VL: QSVLTQPPSVSAAPGQKVTISCSGSTSNIGNNYVSWYQQLPQRAPKLLIYDDDKRPSGIPDRFSGSKSGASATLAITGLQTGDEAYYYCGTWDSSLSRVFGGGTKLTVL
– | 1.6 nM | – | 1226_K16 (antibody, V domains shown) VH: QVQLQQWGAGLLKPSETLSLTCAVYGGSLSGYFWTWIRQPPGRGLEWIGEINHRRTTTSNPSLRSRLTISLDTSKNQFSLKLSSVTAADTAVYYCARITEAVGVTSFDYWGQGILVTVSS VL: QSVLTQPPSVSAAPGQKVNISCSGSTSNIGNNFVAWYQQLPQRAPKLLIYDNDKRPSGIPDRFSGSKSGASATLGITGLQSGDEAYYYCGTWDSTLSRVFGGGTKLTVL

From patent US20110064743A1
